Experiments:
Test in all cases: FRET or BRET
[1] = biological target: T1, mRFP-RTN1 (Arabidopsis reticulon 1) (Arabidopsis thaliana, UniProt Q9SUR3 1-275)
T1 sequence (looked up): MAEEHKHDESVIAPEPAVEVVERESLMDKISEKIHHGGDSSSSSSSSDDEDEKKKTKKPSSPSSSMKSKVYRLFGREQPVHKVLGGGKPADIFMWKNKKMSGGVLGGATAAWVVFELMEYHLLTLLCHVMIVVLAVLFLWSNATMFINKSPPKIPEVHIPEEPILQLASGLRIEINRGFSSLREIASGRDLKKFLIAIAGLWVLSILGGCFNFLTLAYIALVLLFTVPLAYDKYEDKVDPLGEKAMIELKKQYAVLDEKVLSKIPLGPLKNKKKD

[2] = biological target: T2, RTN2 fused to mRFP (Arabidopsis reticulon 2) (Arabidopsis thaliana, UniProt Q9SUT9 1-271)
T2 sequence (looked up): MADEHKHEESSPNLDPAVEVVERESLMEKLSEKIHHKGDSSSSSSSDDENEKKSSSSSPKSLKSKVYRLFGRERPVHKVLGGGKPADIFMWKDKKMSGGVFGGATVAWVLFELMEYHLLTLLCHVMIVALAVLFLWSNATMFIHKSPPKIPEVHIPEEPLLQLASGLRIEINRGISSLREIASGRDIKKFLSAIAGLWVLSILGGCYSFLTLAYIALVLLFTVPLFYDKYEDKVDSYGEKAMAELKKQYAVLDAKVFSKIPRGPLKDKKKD

[3] = biological target: T3, RTN3 fused to mRFP (Arabidopsis reticulon 3) (Arabidopsis thaliana, UniProt Q9SH59 1-255)
T3 sequence (looked up): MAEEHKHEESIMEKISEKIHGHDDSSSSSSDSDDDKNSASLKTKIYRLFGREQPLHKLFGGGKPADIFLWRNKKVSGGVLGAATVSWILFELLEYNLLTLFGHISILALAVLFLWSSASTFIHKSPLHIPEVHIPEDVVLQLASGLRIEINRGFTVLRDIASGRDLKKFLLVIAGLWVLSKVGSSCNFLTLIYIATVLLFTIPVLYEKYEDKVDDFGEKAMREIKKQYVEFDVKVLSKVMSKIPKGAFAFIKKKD

[4] = biological target: T4, RTN19 fused to mRFP (Arabidopsis reticulon 19, 3BETAHSD/D2) (Arabidopsis thaliana, UniProt Q67ZE1 1-564)
T4 sequence (looked up): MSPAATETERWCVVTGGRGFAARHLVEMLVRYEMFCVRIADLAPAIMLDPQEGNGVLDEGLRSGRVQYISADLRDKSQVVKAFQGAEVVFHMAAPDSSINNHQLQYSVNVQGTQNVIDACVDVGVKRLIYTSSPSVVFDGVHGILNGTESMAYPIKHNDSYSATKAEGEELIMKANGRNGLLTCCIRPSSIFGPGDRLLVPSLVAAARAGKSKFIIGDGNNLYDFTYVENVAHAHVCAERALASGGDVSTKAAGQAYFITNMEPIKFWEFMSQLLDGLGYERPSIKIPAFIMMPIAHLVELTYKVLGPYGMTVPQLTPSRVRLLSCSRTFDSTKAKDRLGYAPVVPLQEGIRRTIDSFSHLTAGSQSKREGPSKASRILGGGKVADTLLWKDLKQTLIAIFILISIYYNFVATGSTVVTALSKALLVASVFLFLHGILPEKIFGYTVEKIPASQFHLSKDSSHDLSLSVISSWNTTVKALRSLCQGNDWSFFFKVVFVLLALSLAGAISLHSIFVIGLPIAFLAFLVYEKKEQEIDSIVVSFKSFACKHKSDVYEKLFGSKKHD

fluorescence lifetime of the GFP donor (FRET-FLIM) [1]: 2.21 ns | fluorescence lifetime of the GFP donor (FRET-FLIM) [2]: 2.2 ns | fluorescence lifetime of the GFP donor (FRET-FLIM) [3]: 2.2 ns | fluorescence lifetime of the GFP donor (FRET-FLIM) [4]: 2.2 ns
B1: GFP-RTN20 (Arabidopsis reticulon 20) (natural protein, Arabidopsis thaliana, UniProt A9X4U2 1-561, looked up)
chain: MDEDSVHGDSHLKTCVVLGGRGFIGRSLVSRLLRLGNWTVRVADSGHTLHLDESDSLLEDALSSGRASYHCVDVRDKPQIVKVTEGSYVVFYMGATDLRSHDYFDCYKVIVQGTRNVISACRESGVRKLIYNSTADVVFDGSQPIRDGDESLRRPLKFQSMLTDFKAQAEALIKLANNRDGLLTCALRSSIVFGPGDTEFVPFLVNLAKSGYAKFILGSGENISDFTYSENVSHAHICAVKALDSQMEFVAGKEFFITNLKPVRFWDFVSHIVEGLGYPRPSIKLPVRLVLYVFSLLKWTHEKEGLGSNYDTAHQYALLASSTRTFNCNAAKKHLGYTPVVTLEDGIASTLQWFSRDLEKSDDTIIQSTADQLLGCGKVADILLWRNEKKTFVSFLVLNLFYYWFFFSGNTFTSSAAQLLFIFAVALYGVSFVPSKIFGFQVNKIPPWRFEISESAVRDLSSDIVVVWNQGVRSFKSLSSGGDWIKFFKIAGSLYLLKLIVSRSLAAFLFTVMSFSFTGFFIYEQYELELYHLARIFVECLTFIKRMVIPVSDASSKPMFM
